# Source: article PMC3379008
# Biological target: B/Florida/04/06 full-length HA protein produced from baculovirus in Spodoptera frugiperda insect cells (influenza B virus B/Florida/04/06)
# Test: SEC
substance,measurement,value
B/Florida/04/06 full-length HA protein produced from baculovirus in Spodoptera frugiperda insect cells (natural protein),stoichiometry N,> 9 HA monomers
